Measurements as given in the supplement of paper PMC10567573.

B1: ZNF511 (parent)
chain: HLYPADFRFDKPKKSRSPASAEAP

Variants of: B1
Assay: protein stability index of a GFP-peptide fusion (GPS, HEK-293T) (PSI 1-6); higher = more stable
Conditions: c terminus: a fixed tail appended
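Further: lentivirally expressed fusions sorted by FACS into six bins by GFP to DsRed ratio, PSI derived from sequencing read proportions per bin multiplied by bin number.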

Variant	protein stability index
HLYPADFRFDKPKKSESPASAEAP [R16E]	3.34
HLYPADFRFDKPKKSVSPASAEAP [R16V]	2.51
HLYPADFRFDKPKKSFSPASAEAP [R16F]	2.73
HLYPADFRFDKPKKSYSPASAEAP [R16Y]	2.13
HLYPADFRFDKPKKSPSPASAEAP [R16P]	3.2
HLYPADFRFDKPKKSASPASAEAP [R16A]	3.51
HLYPADFRFDKPKKSLSPASAEAP [R16L]	2.97
HLYPADFRFDKPKKSCSPASAEAP [R16C]	2.54
HLYPADFRFDKPKKSISPASAEAP [R16I]	2.6
HLYPADFRFDKPKKSTSPASAEAP [R16T]	3.44
HLYPADFRFDKPKKSNSPASAEAP [R16N]	3.17
HLYPADFRFDKPKKSMSPASAEAP [R16M]	3.28
HLYPADFRFDKPKKSSSPASAEAP [R16S]	2.76
HLYPADFRFDKPKKSQSPASAEAP [R16Q]	3.28
HLYPADFRFDKPKKSDSPASAEAP [R16D]	3.18
HLYPADFRFDKPKKSGSPASAEAP [R16G]	3.29
HLYPADFRFDKPKKSKSPASAEAP [R16K]	3.36
HLYPADFRFDKPKKSWSPASAEAP [R16W]	3.05
HLYPADFRFDKPKKSHSPASAEAP [R16H]	3.13
HLYPADFRFDKPKFSRSPASAEAP [K14F]	2.26
HLYPADFRFDKPKGSRSPASAEAP [K14G]	3.22
HLYPADFRFDKPKTSRSPASAEAP [K14T]	2.8
HLYPADFRFDKPKCSRSPASAEAP [K14C]	2.77
HLYPADFRFDKPKASRSPASAEAP [K14A]	3.3

Variant	protein stability index
HLYPADFRFDKPKRSRSPASAEAP [K14R]	2.01
HLYPADFRFDKPKDSRSPASAEAP [K14D]	3.29
HLYPADFRFDKPKNSRSPASAEAP [K14N]	3.04
HLYPADFRFDKPKMSRSPASAEAP [K14M]	3.17
HLYPADFRFDKPKVSRSPASAEAP [K14V]	2.33
HLYPADFRFDKPKWSRSPASAEAP [K14W]	2.56
HLYPADFRFDKPKESRSPASAEAP [K14E]	3.23
HLYPADFRFDKPKLSRSPASAEAP [K14L]	3.24
HLYPADFRFDKPKQSRSPASAEAP [K14Q]	2.39
HLYPADFRFDKPKPSRSPASAEAP [K14P]	2.63
HLYPADFRFDKPKYSRSPASAEAP [K14Y]	2.62
HLYPADFRFDKPKSSRSPASAEAP [K14S]	3.08
HLYPADFRFDKPKHSRSPASAEAP [K14H]	2.37
HLYPADFRFDKPKISRSPASAEAP [K14I]	2.67
HLYPADFRFDKYKKSRSPASAEAP [P12Y]	2.94
HLYPADFRFDKFKKSRSPASAEAP [P12F]	3.14
HLYPADFRFDKWKKSRSPASAEAP [P12W]	3.02
HLYPADFRFDKCKKSRSPASAEAP [P12C]	2.94
HLYPADFRFDKAKKSRSPASAEAP [P12A]	2.83
HLYPADFRFDKQKKSRSPASAEAP [P12Q]	3.18
HLYPADFRFDKGKKSRSPASAEAP [P12G]	3.02
HLYPADFRFDKHKKSRSPASAEAP [P12H]	2.89
HLYPADFRFDKIKKSRSPASAEAP [P12I]	3.72
HLYPADFRFDKRKKSRSPASAEAP [P12R]	2.47

Variant	protein stability index
HLYPADFRFDKKKKSRSPASAEAP [P12K]	2.96
HLYPADFRFDKDKKSRSPASAEAP [P12D]	3.2
HLYPADFRFDKLKKSRSPASAEAP [P12L]	3.25
HLYPADFRFDKNKKSRSPASAEAP [P12N]	2.65
HLYPADFRFDKEKKSRSPASAEAP [P12E]	3.69
HLYPADFRFDKVKKSRSPASAEAP [P12V]	2.8
HLYPADFRFDKSKKSRSPASAEAP [P12S]	2.64
HLYPADFRFDKMKKSRSPASAEAP [P12M]	2.72
HLYPADFRFDKTKKSRSPASAEAP [P12T]	3.7
HLYPADFRFQKPKKSRSPASAEAP [D10Q]	2.26
HLYPADFRFGKPKKSRSPASAEAP [D10G]	2.85
HLYPADFRFCKPKKSRSPASAEAP [D10C]	2.15
HLYPADFRFAKPKKSRSPASAEAP [D10A]	2.16
HLYPADFRFVKPKKSRSPASAEAP [D10V]	2.62
HLYPADFRFKKPKKSRSPASAEAP [D10K]	2.8
HLYPADFRFYKPKKSRSPASAEAP [D10Y]	2.87
HLYPADFRFPKPKKSRSPASAEAP [D10P]	2.54
HLYPADFRFLKPKKSRSPASAEAP [D10L]	3.01
HLYPADFRFIKPKKSRSPASAEAP [D10I]	1.87
HLYPADFRFNKPKKSRSPASAEAP [D10N]	2.39
HLYPADFRFEKPKKSRSPASAEAP [D10E]	3.08
HLYPADFRFSKPKKSRSPASAEAP [D10S]	3.22
HLYPADFRFWKPKKSRSPASAEAP [D10W]	2.92
HLYPADFRFHKPKKSRSPASAEAP [D10H]	1.52

Variant	protein stability index
HLYPADFRFTKPKKSRSPASAEAP [D10T]	2.69
HLYPADFRFFKPKKSRSPASAEAP [D10F]	2.83
HLYPADFRFMKPKKSRSPASAEAP [D10M]	2.99
HLYPADFRFRKPKKSRSPASAEAP [D10R]	2.71
HLYPADFRFDSPKKSRSPASAEAP [K11S]	3.32
HLYPADFRFDLPKKSRSPASAEAP [K11L]	2.72
HLYPADFRFDTPKKSRSPASAEAP [K11T]	3.02
HLYPADFRFDVPKKSRSPASAEAP [K11V]	3.52
HLYPADFRFDHPKKSRSPASAEAP [K11H]	2.98
HLYPADFRFDIPKKSRSPASAEAP [K11I]	3.56
HLYPADFRFDQPKKSRSPASAEAP [K11Q]	3.24
HLYPADFRFDEPKKSRSPASAEAP [K11E]	3.01
HLYPADFRFDGPKKSRSPASAEAP [K11G]	3.5
HLYPADFRFDNPKKSRSPASAEAP [K11N]	3.37
HLYPADFRFDDPKKSRSPASAEAP [K11D]	3.23
HLYPADFRFDYPKKSRSPASAEAP [K11Y]	2.44
HLYPADFRFDAPKKSRSPASAEAP [K11A]	3.14
HLYPADFRFDCPKKSRSPASAEAP [K11C]	3.21
HLYPADFRFDFPKKSRSPASAEAP [K11F]	2.95
HLYPADFRFDWPKKSRSPASAEAP [K11W]	2.11
HLYPADFRFDPPKKSRSPASAEAP [K11P]	2.87
HLYPADFRFDMPKKSRSPASAEAP [K11M]	2.62
